Patent publication US8685890 (Bicycle, dated 2014)
Where “and” joins values, the source holds several entries; their conditions need not be identical. Equal values may be shown once. Starred links: 1 amine or outer side, 2 acyl side, 3 side chain; linkers in the order of their positions; H or OH if unused. Positions of bridges follow the written chain, without caps; N, C: chain ends. No end group written: not given here. TBMB = c1c(C[*:1])cc(C[*:3])cc1C[*:2]

Legend:
[1] = target: kallikrein (UniProt P03952 20-638, limits assumed); assay: cell-based or functional assay
[2] = target: T1, MDM2 (res 2-125) (UniProt Q00987 2-125); assay: fluorescence anisotropy titration, MDM2 (res 2-125) titrated into the peptide, quadratic 1:1 fit with linear drift term; unit from the axis MDM2, uM
T1 construct: range 2-125

[3] = target: T2, Mdm2 (construct limits not stated) (UniProt Q00987 2-125, limits assumed); assay: fluorescence anisotropy (FIG. 3); PK15L1-PEP48L1 bicycle (FIG. 3)
[4] = target: T3, bovine serum albumin (bovine, UniProt P02769 25-607); assay: fluorescence anisotropy, comparison of Kd
T3 construct: also called BSA

[5] = target: T3, bovine serum albumin; assay: fluorescence anisotropy titration of BSA into peptide
[6] = target: T3, bovine serum albumin; assay: fluorescence anisotropy titration of BSA into 200 nM peptide
[7] = target: T3, bovine serum albumin; assay: fluorescence anisotropy titration of BSA into 0.4 µM peptide
[8] = target: T1, MDM2 (res 2-125); assay: fluorescence anisotropy (Example 1, retold as a range); lower end of range retold from Example 1
[9] = target: T1, MDM2 (res 2-125); assay: fluorescence anisotropy titration, λex=280 nm; λex=280 nm
[10] = target: T1, MDM2 (res 2-125); assay: fluorescence anisotropy titration, intrinsic Trp fluorescence, PBS 5 mM DTT, 23 C
[11] = target: T1, MDM2 (res 2-125); assay: fluorescence anisotropy titration, λex=295 nm
[12] = target: T1, MDM2 (res 2-125); assay: as described in Example 1 (method not retold)
[13] = target: T1, MDM2 (res 2-125); assay: fluorescence anisotropy (Example 1, retold as a range); upper end of range retold from Example 1
[14] = target: T1, MDM2 (res 2-125); assay: fluorescence anisotropy titration, MDM2 (res 2-125) titrated into the peptide, quadratic 1:1 fit with linear drift term; unit from the axis uM Mdm2
[15] = target: T3, bovine serum albumin; assay: fluorescence anisotropy titration of BSA into 500 nM peptide
[16] = target: T2, Mdm2 (construct limits not stated at …); assay: fluorescence anisotropy titration of 18.8 µM Mdm2 into 500 nM peptide; data could not be fitted
[17] = target: T2, Mdm2 (construct limits not stated at …); assay: method not given; affinity-matured Pep48T, estimated

T2 sequence (Q00987 2-125 limits assumed): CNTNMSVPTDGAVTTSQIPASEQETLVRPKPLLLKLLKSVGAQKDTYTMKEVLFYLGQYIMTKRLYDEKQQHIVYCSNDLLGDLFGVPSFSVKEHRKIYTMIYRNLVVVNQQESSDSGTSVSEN
T1 sequence (Q00987 2-125 limits assumed): as above
Sequence of kallikrein (P03952 20-638 limits assumed): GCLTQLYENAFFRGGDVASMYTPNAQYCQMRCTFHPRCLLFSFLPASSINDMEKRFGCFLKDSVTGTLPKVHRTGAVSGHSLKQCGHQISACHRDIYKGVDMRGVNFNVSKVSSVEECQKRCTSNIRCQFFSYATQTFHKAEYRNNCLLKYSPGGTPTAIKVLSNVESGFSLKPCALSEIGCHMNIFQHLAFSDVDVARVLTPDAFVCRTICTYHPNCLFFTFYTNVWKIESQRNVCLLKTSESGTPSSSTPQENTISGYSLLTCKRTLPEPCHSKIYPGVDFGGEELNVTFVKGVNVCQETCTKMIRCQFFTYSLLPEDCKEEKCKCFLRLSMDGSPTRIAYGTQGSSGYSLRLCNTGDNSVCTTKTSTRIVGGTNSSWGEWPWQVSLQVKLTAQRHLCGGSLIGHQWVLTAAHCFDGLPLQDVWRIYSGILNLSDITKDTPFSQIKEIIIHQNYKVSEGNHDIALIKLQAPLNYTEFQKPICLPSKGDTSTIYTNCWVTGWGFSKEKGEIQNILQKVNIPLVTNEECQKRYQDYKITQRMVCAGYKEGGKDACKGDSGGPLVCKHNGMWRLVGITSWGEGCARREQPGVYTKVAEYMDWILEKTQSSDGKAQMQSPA
T3 sequence (P02769 25-607 limits assumed): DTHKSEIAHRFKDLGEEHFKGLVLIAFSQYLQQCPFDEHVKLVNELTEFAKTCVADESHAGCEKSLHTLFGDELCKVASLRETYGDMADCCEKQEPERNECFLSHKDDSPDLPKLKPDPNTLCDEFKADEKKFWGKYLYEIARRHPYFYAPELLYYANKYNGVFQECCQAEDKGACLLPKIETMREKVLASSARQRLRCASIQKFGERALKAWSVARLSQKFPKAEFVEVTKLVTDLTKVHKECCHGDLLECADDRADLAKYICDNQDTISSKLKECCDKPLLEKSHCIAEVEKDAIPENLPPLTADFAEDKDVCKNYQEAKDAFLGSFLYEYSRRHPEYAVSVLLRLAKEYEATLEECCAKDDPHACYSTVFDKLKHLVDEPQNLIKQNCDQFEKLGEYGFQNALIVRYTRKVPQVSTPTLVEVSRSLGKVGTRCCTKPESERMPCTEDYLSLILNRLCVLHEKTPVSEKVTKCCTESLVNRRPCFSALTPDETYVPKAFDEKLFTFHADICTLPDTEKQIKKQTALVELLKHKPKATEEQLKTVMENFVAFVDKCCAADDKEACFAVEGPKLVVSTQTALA

B1: CG4L1-PK15L1-PK15L2 tricyclic (peptide)
peptide: ALCIFDLGFCSDRFRNCPADE
HELM: PEPTIDE1{A.L.C.I.F.D.L.G.F.C.S.D.R.F.R.N.C.P.A.D.E}|CHEM1{[c1c(C[*:1])cc(C[*:3])cc1C[*:2]]}$PEPTIDE1,CHEM1,3:R3-1:R1|PEPTIDE1,CHEM1,10:R3-1:R2|PEPTIDE1,CHEM1,17:R3-1:R3|PEPTIDE1,PEPTIDE1,1:R1-21:R2$$$V2.0
SMILES: CC[C@H](C)[C@@H]1NC(=O)[C@@H]2CSCc3cc4cc(c3)CSC[C@H](NC(=O)[C@H](CC(N)=O)NC(=O)[C@H](CCCNC(=N)N)NC(=O)[C@H](Cc3ccccc3)NC(=O)[C@H](CCCNC(=N)N)NC(=O)[C@H](CC(=O)O)NC(=O)[C@H](CO)NC(=O)[C@H](CSC4)NC(=O)[C@H](Cc3ccccc3)NC(=O)CNC(=O)[C@H](CC(C)C)NC(=O)[C@H](CC(=O)O)NC(=O)[C@H](Cc3ccccc3)NC1=O)C(=O)N1CCC[C@H]1C(=O)N[C@@H](C)C(=O)N[C@@H](CC(=O)O)C(=O)N[C@@H](CCC(=O)O)C(=O)N[C@@H](C)C(=O)N[C@@H](CC(C)C)C(=O)N2
IC50 for inhibition of kallikrein activity [1]: 15 µM

B2: PK15L1-PEP48L1 bicyclic (peptide)
peptide: ACSDRFRNCVRFGWTCG
modifications: linker 2-9-16 via TBMB
notes: also called PK15L1-PEP48L1 bicyclic peptide; dual specific peptide comprising loops from PEP48 and PK15
Kd [2]: 1560 nM | IC50 for inhibition of kallikrein activity [1]: 11 µM | Kd [3]: 1550 nM

B3: Fmoc-FGSGD-NH2 (peptide)
peptide: FGSGD
HELM: PEPTIDE1{[O=C(OCC1c2ccccc2-c2ccccc21)[*:2]].F.G.S.G.D.[am]}$$$$V2.0
SMILES: NC(=O)[C@H](CC(=O)O)NC(=O)CNC(=O)[C@H](CO)NC(=O)CNC(=O)[C@H](Cc1ccccc1)NC(=O)OCC1c2ccccc2-c2ccccc21
fold tighter than the glycine variant (Fmoc-GGSGD-NH2) [4]: 8 fold | Kd [5]: 160 nM

B4: Fmoc-GGSGD-NH2 (peptide)
peptide: GGSGD
HELM: PEPTIDE1{[O=C(OCC1c2ccccc2-c2ccccc21)[*:2]].G.G.S.G.D.[am]}$$$$V2.0
SMILES: NC(=O)[C@H](CC(=O)O)NC(=O)CNC(=O)[C@H](CO)NC(=O)CNC(=O)CNC(=O)OCC1c2ccccc2-c2ccccc21
notes: also called the glycine variant
Kd [6]: 1300 nM

B5: Fmoc-WGSGD-NH2 (peptide)
peptide: WGSGD
HELM: PEPTIDE1{[O=C(OCC1c2ccccc2-c2ccccc21)[*:2]].W.G.S.G.D.[am]}$$$$V2.0
SMILES: NC(=O)[C@H](CC(=O)O)NC(=O)CNC(=O)[C@H](CO)NC(=O)CNC(=O)[C@H](Cc1c[nH]c2ccccc12)NC(=O)OCC1c2ccccc2-c2ccccc21
notes: also called Fmoc-Trp-GSGD
fold tighter than Fmoc-FGSGD-NH2 [4]: 3 fold | Kd [7]: ~60 nM

B6: Fmoc-FGGGD-NH2 (peptide)
peptide: FGGGD
HELM: PEPTIDE1{[O=C(OCC1c2ccccc2-c2ccccc21)[*:2]].F.G.G.G.D.[am]}$$$$V2.0
SMILES: NC(=O)[C@H](CC(=O)O)NC(=O)CNC(=O)CNC(=O)CNC(=O)[C@H](Cc1ccccc1)NC(=O)OCC1c2ccccc2-c2ccccc21
Kd [5]: 200 nM

B7: PEP48 bicyclic peptide (synthetic peptide of phage clone 48 conjugated to TBMB) (peptide)
peptide: H-SCVRFGWTCDNSWHGCKG-OH
modifications: linker 2-9-16 via TBMB
notes: measured in PBS with 5 mM DTT; also called peptide 48; PEP48L1-PEP48L2 bicyclic peptide
Kd [8]: ≥ 500 nM | Kd [9]: 760 nM | Kd [10]: 250 to 750 nM | Kd [11]: 567 nM | Kd [12]: ~660 nM | Kd [13]: ≤ 800 nM | Kd [14]: 760 nM and 568 nM

B8: PK15L1-CG4L1 bicyclic (peptide)
peptide: ACSDRFRNCIFDLGFCG
HELM: PEPTIDE1{A.C.S.D.R.F.R.N.C.I.F.D.L.G.F.C.G}|CHEM1{[c1c(C[*:1])cc(C[*:3])cc1C[*:2]]}$PEPTIDE1,CHEM1,2:R3-1:R1|PEPTIDE1,CHEM1,9:R3-1:R2|PEPTIDE1,CHEM1,16:R3-1:R3$$$V2.0
SMILES: CC[C@H](C)[C@@H]1NC(=O)[C@@H]2CSCc3cc(cc(c3)CSC[C@@H](C(=O)NCC(=O)O)NC(=O)[C@H](Cc3ccccc3)NC(=O)CNC(=O)[C@H](CC(C)C)NC(=O)[C@H](CC(=O)O)NC(=O)[C@H](Cc3ccccc3)NC1=O)CSC[C@H](NC(=O)[C@H](C)N)C(=O)N[C@@H](CO)C(=O)N[C@@H](CC(=O)O)C(=O)N[C@@H](CCCNC(=N)N)C(=O)N[C@@H](Cc1ccccc1)C(=O)N[C@@H](CCCNC(=N)N)C(=O)N[C@@H](CC(N)=O)C(=O)N2
IC50 for inhibition of kallikrein activity [1]: 0.2 µM

B9: PK15L1-PK15L2 bicyclic (peptide)
peptide: ACSDRFRNCPADEALCG
modifications: linker 2-9-16 via TBMB
IC50 for inhibition of kallikrein activity [1]: 0.013 µM

B10: PEP10 bicyclic peptide (synthetic peptide of phage clone 10 conjugated to TBMB) (peptide)
peptide: H-SCELWNPKCRLSPFECKG-OH
modifications: linker 2-9-16 via TBMB
notes: measured in PBS with 5 mM DTT; also called peptide 10
Kd [10]: 250 to 750 nM | Kd [11]: 267 nM | Kd [14]: 268 nM

B11: X-CG4L1-PK15L1-Y bicyclic (peptide)
peptide: H-ALCIFDLGFCSDRFRNCPADE-OH
modifications: linker 3-10-17 via TBMB
IC50 for inhibition of kallikrein activity [1]: 15 µM

B12: bicyclic Fmoc-WGGGA-PEP48L1-PK15L1 (peptide)
peptide: WGGGACVRFGWTCSDRFRNCG
HELM: PEPTIDE1{[O=C(OCC1c2ccccc2-c2ccccc21)[*:2]].W.G.G.G.A.C.V.R.F.G.W.T.C.S.D.R.F.R.N.C.G.[am]}|CHEM1{[c1c(C[*:1])cc(C[*:3])cc1C[*:2]]}$PEPTIDE1,CHEM1,7:R3-1:R1|PEPTIDE1,CHEM1,14:R3-1:R2|PEPTIDE1,CHEM1,21:R3-1:R3$$$V2.0
SMILES: CC(C)[C@@H]1NC(=O)[C@@H](NC(=O)[C@H](C)NC(=O)CNC(=O)CNC(=O)CNC(=O)[C@H](Cc2c[nH]c3ccccc23)NC(=O)OCC2c3ccccc3-c3ccccc32)CSCc2cc3cc(c2)CSC[C@H](NC(=O)[C@H]([C@@H](C)O)NC(=O)[C@H](Cc2c[nH]c4ccccc24)NC(=O)CNC(=O)[C@H](Cc2ccccc2)NC(=O)[C@H](CCCNC(=N)N)NC1=O)C(=O)N[C@@H](CO)C(=O)N[C@@H](CC(=O)O)C(=O)N[C@@H](CCCNC(=N)N)C(=O)N[C@@H](Cc1ccccc1)C(=O)N[C@@H](CCCNC(=N)N)C(=O)N[C@@H](CC(N)=O)C(=O)N[C@H](C(=O)NCC(N)=O)CSC3
notes: also called Fmoc PEP48L1-PK15L1 bicyclic; FmocPEP48L1-PK15L1
Kd [15]: 62 nM | Kd [16]: < 1000 nM | IC50 for inhibition of kallikrein activity [1]: 17 µM

B13: Pep48T (affinity-matured Pep48 derivative, TBMB conjugate) (peptide)
peptide: SGCVRFGWTCPTVMCGG
modifications: linker 3-10-15 via TBMB; not fully specified (N-terminus, C-terminus)
Kd [17]: ~100 nM
